The labels stand for the following.
B1: R3137 (peptide)
peptide: Heptanoyl-C[dPhg]T[Trp(7-aza)]EY[NMeS]AC[Nva]-NH2
modifications: linker 1-9 via mXylyl″; not fully specified; printed as [mXylyl(1,9)]heptanoyl-C-(D-Phg)-T-azaTrp-E-Y-(N-Me)S-A-C-Nvl-NH2
B2: R3110 (peptide)
peptide: Ac-YEN[Tle]Y[Trp(1-Me)]EYP[Phg][Nva]-NH2
SMILES: CCC[C@H](NC(=O)[C@@H](NC(=O)[C@@H]1CCCN1C(=O)[C@H](Cc1ccc(O)cc1)NC(=O)[C@H](CCC(=O)O)NC(=O)[C@H](Cc1cn(C)c2ccccc12)NC(=O)[C@H](Cc1ccc(O)cc1)NC(=O)[C@@H](NC(=O)[C@H](CC(N)=O)NC(=O)[C@H](CCC(=O)O)NC(=O)[C@H](Cc1ccc(O)cc1)NC(C)=O)C(C)(C)C)c1ccccc1)C(N)=O
B3: R3119 (peptide)
peptide: Ac-YENY[dW]EYP[Phg][Nva]-NH2
SMILES: CCC[C@H](NC(=O)[C@@H](NC(=O)[C@@H]1CCCN1C(=O)[C@H](Cc1ccc(O)cc1)NC(=O)[C@H](CCC(=O)O)NC(=O)[C@@H](Cc1c[nH]c2ccccc12)NC(=O)[C@H](Cc1ccc(O)cc1)NC(=O)[C@H](CC(N)=O)NC(=O)[C@H](CCC(=O)O)NC(=O)[C@H](Cc1ccc(O)cc1)NC(C)=O)c1ccccc1)C(N)=O
B4: R3136 (peptide)
peptide: Heptanoyl-[Nva]C[dPhg]T[Trp(7-aza)]EY[NMeS]AC[Nva]-NH2
modifications: linker 2-10 via mXylyl″; not fully specified; printed as [mXylyl(2,10)]heptanoyl-Nvl-C-(D-Phg)-T-azaTrp-E-Y-(N-Me)S-A-C-Nvl-NH2
B5: R3000 (peptide)
peptide: Ac-[Nva]CYKNYH[Trp(7-aza)]EYP[Tle]Y-NH2
SMILES: CCC[C@H](NC(C)=O)C(=O)N[C@@H](CS)C(=O)N[C@@H](Cc1ccc(O)cc1)C(=O)N[C@@H](CCCCN)C(=O)N[C@@H](CC(N)=O)C(=O)N[C@@H](Cc1ccc(O)cc1)C(=O)N[C@@H](Cc1c[nH]cn1)C(=O)N[C@@H](Cc1c[nH]c2ncccc12)C(=O)N[C@@H](CCC(=O)O)C(=O)N[C@@H](Cc1ccc(O)cc1)C(=O)N1CCC[C@H]1C(=O)N[C@H](C(=O)N[C@@H](Cc1ccc(O)cc1)C(N)=O)C(C)(C)C

Positions of bridges follow the written chain, without caps; N, C: chain ends. Non-standard residues stand in square brackets, D forms with d. Primed or numbered codes have the meaning given here. *: point of attachment. mXylyl(3) = bridging moiety between the two residues given in brackets; mXylyl″ = bridging moiety between the two marked residues; mXylyl = bridging moiety between residues (mXylyl(i,j)); Ala(1H-tetrazol-5-yl) = N[C@@H](Cc1nnn[nH]1)C(=O)O; Trp(7-aza) = N[C@@H](Cc1c[nH]c2ncccc12)C(=O)O; mXylyl(4) = bridging moiety between residues; Trp(1-Me) = Cn1cc(C[C@H](N)C(=O)O)c2ccccc21; pXylyl = bridging moiety between residues; Phe(3-Cl) = N[C@@H](Cc1cccc(Cl)c1)C(=O)O; Tiq1c(1S) = O=C(O)[C@H]1NCCc2ccccc21; dPhg = N[C@@H](C(=O)O)c1ccccc1; Phg = N[C@H](C(=O)O)c1ccccc1; Tle = CC(C)(C)[C@H](N)C(=O)O; NMeS = CN[C@@H](CO)C(=O)O; hCys = N[C@@H](CCS)C(=O)O; Heptanoyl = CCCCCCC(=O)*; Nle = CCCC[C@H](N)C(=O)O; Nva = CCC[C@H](N)C(=O)O; Sar = CNCC(=O)O

The test addresses human C5 protein (human, UniProt P01031 19-673; P01031 678-1676). The test can be described thus: cell-based or functional assay.
Regarding Ac-[Nva]CYNN[Tle]E[Trp(7-aza)]ECP[Phg][Tle]-NH2 (cysteine pairing not given here) [R3126], the “Avg. IC50, human hemolysis assay (complete human sera)” value (“Avg. IC50, human hemolysis assay” for short) is above 3 µM.
As for B1, the figure is above 100 µM; as for Ac-[Nva]C[Phg]T[Trp(7-aza)]EYPHC[Nva]-NH2 (linker 2-10 via mXylyl(4)) [R3102], 0.978 µM; as for Ac-[Nva]C[Phg]T[Trp(1-Me)]EY[NMeS]AC[Nva]-NH2 (linker 2-10 via mXylyl(4)) [R3109], above 100 µM.
As for Ac-[Nva]C[Tiq1c(1S)]T[Trp(7-aza)]EY[NMeS]HC[Nva]-NH2 (linker 2-10 via mXylyl(3)) [R3122], the figure is above 50 µM.
Consider Ac-[Nva]C[Phg][dA][Trp(7-aza)]EY[NMeS]HC[Nva]-NH2 (linker 2-10 via mXylyl″) [R3133], for which the “Avg. IC50, human hemolysis assay” value is above 75 µM.
As for Ac-[Nva][hCys][Phg]T[Trp(7-aza)]EY[NMeS]H[hCys][Nva]-NH2 (linker 2-10 via mXylyl(4)) [R3107], the figure is above 75 µM; as for Ac-CVERFCWEF-NH2 (linker 1-6 via mXylyl(4)) [R3125], above 100 µM.
On to Ac-CVERFCVYWEF-NH2 (linker 1-6 via mXylyl(4)) [R3124], for which the “Avg. IC50, human hemolysis assay” value is above 100 µM.
Consider Ac-[Nva][hCys][Phg]T[Trp(7-aza)]EY[NMeS]HC[Nva]-NH2 (linker 2-10 via pXylyl) [R3104], for which the “Avg. IC50, human hemolysis assay” value is above 2 µM.
For the molecule Ac-[Nva]CYE[Sar][Tle]Y[Trp(7-aza)]E[Nva][Nva]PC-NH2 (linker 2-13 via mXylyl) [R3010], the “Avg. IC50, human hemolysis assay” value is above 100 µM.
On to B2, for which the “Avg. IC50, human hemolysis assay” value was 2.94 µM.
The same measure for Ac-[Nva]C[Phg]T[Trp(7-aza)]EY[NMeS]H[hCys][Nva]-NH2 (linker 2-10 via mXylyl(4)) [R3105]: above 5 µM; for Ac-[Nva]C[Phg]T[Trp(7-aza)]EY[NMeS][dA]C[Nva]-NH2 (linker 2-10 via mXylyl″) [R3135]: above 25 µM; for Ac-[Nle]C[Phg]T[Trp(7-aza)]EY[NMeS]HC[Nva]-NH2 (linker 2-10 via mXylyl(4)) [R3112]: above 5 µM.
With Ac-CVERFCD[Tle]YWEF-NH2 (linker 1-6 via mXylyl″) [R3138], the “Avg. IC50, human hemolysis assay” value worked out at 0.0872 µM.
Ac-[Nva]T[Phg]C[Trp(7-aza)]EY[NMeS]AC[Nva]-NH2 (linker 4-10 via mXylyl(4)) [R3111]: the “Avg. IC50, human hemolysis assay” value is above 5 µM.
The same measure for Ac-[Nva][hCys][Phg]T[Trp(7-aza)]EY[NMeS]H[hCys][Nva]-NH2 (linker 2-10 via pXylyl) [R3108]: above 75 µM.
As for B3, the figure is above 100 µM; as for B4, above 50 µM; as for Ac-Y[Nva]C[Phg]T[Trp(7-aza)]EY[NMeS]HC[Nva]-NH2 (linker 3-11 via mXylyl(4)) [R3113], above 5 µM.
As for B5, the figure is above 10 µM; as for Ac-[Nva]C[Phg]TW[Ala(1H-tetrazol-5-yl)]Y[NMeS]HC[Nva]-NH2 (linker 2-10 via mXylyl(3)) [R3131], above 100 µM; as for Ac-C[Tle]ERFCD[Tle]YWEF-NH2 (linker 1-6 via mXylyl″) [R3139], 0.0972 µM.
For Ac-[Nva]C[Phg]T[Trp(7-aza)]E[Phe(3-Cl)][NMeS]AC[Nva]-NH2 (linker 2-10 via mXylyl″) [R3134], the “Avg. IC50, human hemolysis assay” value was above 5 µM.
As for Ac-[Nva]C[Phg]T[Trp(7-aza)]EY[NMeS]HGC[Nva]-NH2 (linker 2-11 via mXylyl(4) (inferred)) [R3101], the “Avg. IC50, human hemolysis assay” value is above 100 µM.
On to Ac-[Nva]CYNN[Tle]ECEYP[Phg][Tle]-NH2 (cysteine pairing not given here) [R3128], for which the “Avg. IC50, human hemolysis assay” value was above 100 µM.
As for Ac-[Nva]C[Phg]T[dW]EY[NMeS]HC[Nva]-NH2 (linker 2-10 via mXylyl″) [R3132], the figure is above 100 µM.
As for Ac-[Nva]CYNN[Tle]ECEYP[Phg][Tle]-NH2 (linker 2-8 via mXylyl(4)) [R3129], the figure is above 100 µM.
Consider Ac-[Nva]C[Phg]T[Trp(7-aza)]EY[NMeS]HC[Nva]-NH2 (linker 2-10 via mXylyl) [R3012], for which the “Avg. IC50, human hemolysis assay” value came out at 0.148 µM.
As for Ac-[Nva]CYNN[Tle]E[Trp(7-aza)]ECP[Phg][Tle]-NH2 (linker 2-10 via mXylyl(4)) [R3127], the figure is above 75 µM; as for Ac-[Nva][hCys][Phg]T[Trp(7-aza)]EY[NMeS]HC[Nva]-NH2 (linker 2-10 via mXylyl(4)) [R3103], above 25 µM; as for Ac-[Nva]C[Phg]T[Trp(7-aza)]EY[NMeS]H[hCys][Nva]-NH2 (linker 2-10 via pXylyl) [R3106], above 5 µM.
For Ac-[Nva]CYE[Sar][Tle]Y[Trp(7-aza)]EC[Nva]P[Nva]-NH2 (linker 2-10 via mXylyl) [R3009], the “Avg. IC50, human hemolysis assay” value is above 100 µM.
In the case of Ac-CVERFCDVYWEYP-NH2 (linker 1-6 via mXylyl″) [R3140], the “Avg. IC50, human hemolysis assay” value stood at 0.0179 µM.

Values taken from patent publication US11535650 (RA PHARMACEUTICALS, dated 2022).
